Laboratory results: patent US20150007357A1, “Use Of Humanized Mice To Determine Toxicity” (Massachusetts Institute Of Technology, priority 2011, published 2015)
Entries after “also recorded” stand apart in the source; their conditions may differ.

Columns and labels:
[1] = test system: human T, B, NK cells and monocytes in cytokine-treated humanized mice; experiment: Immunophenotyping of human cell lineages in peripheral blood (flow cytometry) of cytokine-treated humanized mice; type: in vivo, mouse
Description: (§1) The blood sampling at seven days post-cytokines treatment was used as the time point (−48 hours) for setting the baseline of the production levels of different cytokines and human cells absolute numbers and percentages. […] Blood samples were collected 2 and 24 hours after the mAb treatment, and all injected animals were euthanized at 24 hours.
(§2) Single cell suspensions were prepared from spleen by standard procedures. The following human conjugated antibodies were used for flow cytometry staining. […] Cells were stained with appropriate antibodies in 100 μl PBS containing 0.2% BSA and 0.05% sodium azide for 30 min on ice. Flow cytometry was performed on a LSRII flow cytometer using the FACSDiva software (BD, Franklin Lakes, N.J.), and samples were analyzed using the Flowjo software. For cytokine detection, the concentration of human IL-2, IL-6, IL-8, IL-1β, TNF-α, IFN-γ and mouse IL-2, IL-6, IL-8 were determined in sera using a BD Cytometric Bead Array (CBA) (BD Biosciences, USA). The experiments were conducted according to the manufacturer's recommendation and results were analyzed with the FCAP array software (Soft Flow Hungary, BD Biosciences).

[2] = test system: cytokine-treated humanized mice; experiment: Liver enzymes (AST, ALT) in cytokine-treated humanized mice; type: in vivo, mouse; details: 24 hours post-treatment
Description: as §1

[3] = test system: cytokine-treated humanized mice (NSG engrafted with human HSCs, human IL-15 and Flt-3L plasmids); experiment: Serum human cytokine release after mAb injection in IL-15/Flt-3L cytokine-treated humanized mice; type: in vivo, mouse; details: for change in serum levels of human cytokines: vs saline control or baseline; for serum levels of human cytokines at 24 hours: 24 hours post-injection
Description: NSG mice were purchased from the Jackson Laboratories and maintained under specific pathogen-free conditions in the animal facilities at Nanyang Technological University and National University of Singapore. To reconstitute mice, newborn pups (less than 48 hours old) were irradiated with 100 cGy using a Gamma radiation source and injected intracardially with CD34+CD133+ cells ([…] cells/recipient). Human IL-15 and human Fltr-3 ligand were cloned separately into pcDNA3.1(+) vector (Invitrogen, USA) as described previously (Chen Q et al. (2009) Proc Natl Acad Sci, USA, 106:21783-21788). For hydrodynamic gene delivery, 12 week-old humice were injected with 50 μg of each plasmid in a total of 2 ml saline within 7 seconds using a 27 gauge needle. All research with human samples and mice was performed in compliance with the institutional guidelines.
as §1
as §2, with “procedures.” for “procedures. The following human conjugated antibodies were used for flow cytometry staining.”, “IL-2, IL-4,” for “IL-2,”, “TNF-α, and” for “TNF-α,”, “IFN-γ” for “IFN-γ and mouse IL-2, IL-6, IL-8”
NSG mice were purchased from the Jackson Laboratories and maintained under specific pathogen-free conditions in the animal facilities at Nanyang Technological University and National University of Singapore. To reconstitute mice, newborn pups (less than 48 hours old) were irradiated with 100 cGy using a Gamma radiation source and injected intracardially with CD34+CD133+ cells (1×10^5 cells/recipient). Human IL-15 and human Fltr-3 ligand were cloned separately into pcDNA3.1(+) vector (Invitrogen, USA) as described previously. For hydrodynamic gene delivery, 12 week-old humice were injected with 50 μg of each plasmid in a total of 2 ml saline within 7 seconds using a 27 gauge needle. All research with human samples and mice was performed in compliance with the institutional guidelines.
as §2

[4] = test system: PBMCs; details: incubated in aqueous phase; previous study; cited from earlier work
[5] = test system: cytokine-treated humanized mice; experiment: Serum mouse cytokines (mIL-2, mIFN-γ, mIL-6) in cytokine-treated humanized mice; type: in vivo; details: mice treated with IL-15 and FLT3L or M-CSF plasmid
Description: (§3) Single cell suspensions were prepared from spleen by standard procedures. The following human conjugated antibodies were used for flow cytometry staining. CD3, CD4, CD8, CD19, CD28, CD45, CD45RO, CCR7 from Biolegend; CD14 and CD56 from BD Biosciences (BD Biosciences, USA) and mouse CD45.1 from eBioscience. Cells were stained with appropriate antibodies in 100 μl PBS containing 0.2% BSA and 0.05% sodium azide for 30 min on ice. Flow cytometry was performed on a LSRII flow cytometer using the FACSDiva software (BD, Franklin Lakes, N.J.), and samples were analyzed using the Flowjo software. For cytokine detection, the concentration of human IL-2, IL-6, IL-8, IL-1β, TNF-α, IFN-γ and mouse IL-2, IL-6, IL-8 were determined in sera using a BD Cytometric Bead Array (CBA) (BD Biosciences, USA). The experiments were conducted according to the manufacturer's recommendation and results were analyzed with the FCAP array software (Soft Flow Hungary, BD Biosciences).

[6] = test system: humanized mice treated with M-CSF human cytokine plasmid; experiment: Serum human cytokine release in humanized mice treated with human M-CSF plasmid; type: in vivo, mouse; details: 2 hours post-injection
Description: as §1
as §3, with “Biosciences). […]” for “Biosciences).”

[7] = 2 and 24 hrs post-injection, 1 mg/kg
[8] = 2 hours post-injection, 1 mg/kg i.v.
[9] = IL-15 and Flt-3L treated mice, 2 hours post-injection, 1 mg/kg i.v.

| Substance | B cell numbers in peripheral blood [1, 7] | NK cell numbers in peripheral blood [1, 7] | T cell numbers in peripheral blood [1, 7] | monocyte numbers in peripheral blood [1, 7] | Aspartate aminotransferase (AST) level [2] | change in serum levels of human cytokines [3, 8] | serum levels of human cytokines at 24 hours ([3]; 1 mg/kg i.v.) | serum levels of human IL-2 ([3]; IL-15 and Flt-3L treated mice, 2 hours post-injection, 1 mg/kg) | serum levels of human IL-6 [3, 9] | serum levels of human IL-8 [3, 9] | IL-2 response of PBMCs [4] | IL-6 response of PBMCs [4] | IL-8 response of PBMCs [4] | mouse IL-6 (mIL-6) in sera [5] | reduction of the CD14+ cells ([1]; 2 hours post-injection) | serum levels of human IL-6 [6] | serum levels of human IL-8 [6] | mouse mIL-2 and mIFN-γ in sera [5] |
| --- | --- | --- | --- | --- | --- | --- | --- | --- | --- | --- | --- | --- | --- | --- | --- | --- | --- | --- |
| Alemtuzumab: humanized anti-CD52 antibody for treating chronic lymphocytic leukemia (Campath, Genzyme) | complete depletion | complete depletion | complete depletion | complete depletion; also recorded: only residual monocytes cell remaining at 24 hrs | did not induce a significatively increase | increase in the serum levels of IL-2, IL-6, IL-8 and IL-1β | most cytokines, except IL-1β, had returned to the baseline level | 0.0316 ng/mL | 0.0192 ng/mL | 0.2241 ng/mL | 14.0 pg/mL | 88 pg/mL | 6050 pg/mL | increase | – | – | – | – |
| OKT3: mouse mAb against human CD3 for suppressing renal allograft rejection (Biolegend) | – | transient decrease | complete depletion | – | did not induce a significatively increase | significant increase in the circulating levels of IL-2, IL-6, IL-8 and IFN-γ | IL-2 expression was diminished 24-hours post injection, the other cytokines remained elevated | – | 0.1318 ng/mL | – | – | – | – | increase; also recorded: slightly increase | 4 fold | 1.5128 ng/mL | 0.7226 ng/mL | not |
